Measurements taken from paper PMC6297244, “Synthesis and Kinetic evaluation of an azido analogue of methylerythritol phosphate: a Novel Inhibitor of E. coli YgbP/IspD” (Scientific Reports, 2018).

Key:
[1] = substrate: C[C@](O)(CO)[C@H](O)COP(=O)(O)O; assay: Michaelis-Menten and bi-substrate steady-state kinetics (apparent Km), malachite green assay; type: biochemical, Escherichia coli; conditions: Mg2+ ([…] MgCl2 in assay); CTP as co-substrate sequential mechanism; ternary complex with CTP
[2] = substrate: Nc1ccn([C@@H]2O[C@H](COP(=O)(O)OP(=O)(O)OP(=O)(O)O)[C@@H](O)[C@H]2O)c(=O)n1; assay: as above; type: biochemical, Escherichia coli; conditions: Mg2+ ([…] MgCl2 in assay); MEP as co-substrate CTP-binding pocket; sequential mechanism

B1: YgbP/IspD (Escherichia coli K-12) (protein)
chain: ATTHLDVCAVVPAAGFGRRMQTECPKQYLSIGNQTILEHSVHALLAHPRVKRVVIAISPGDSRFAQLPLANHPQITVVDGGDERADSVLAGLKAAGDAQWVLVHDAARPCLHQDDLARLLALSETSRTGGILAAPVRDTMKRAEPGKNAIAHTVDRNGLWHALTPQFFPRELLHDCLTRALNEGATITDEASALEYCGFHPQLVEGRADNIKVTRPEDLALAEFYLTRTIHQENT
[1]
  Km: 40 ± 7 µM
[2]
  Km: 84 ± 9 µM
